Experimental data reported in article PMC4504005 (2015).
Where “and” joins values, the source holds several entries; their conditions need not be identical. Equal values may be shown once. Ends that are not written are not given here.

How the values were obtained:
[1] = target: MBP-RAMP1 ECD-(GSA)3-CLR ECD-H6 tethered fusion protein (UniProt O60894 27-118)
[2] = target: wild-type tethered MBP-RAMP2 ECD-CLR ECD fusion protein (UniProt O60895 43-143)
[3] = target: MBP-RAMP2 ECD [L106R]-(GSA)3-CLR ECD-H6 tethered fusion protein (UniProt O60895 43-143, L106R)

Row | Binder | IC50 [1] | IC50 [2] | IC50 [3]
1 | FVPTDVGPFAY-NH2 [CGRPmut [F37Y]] | 0.575 µM |  | 
2 | TVQKLAHQIYQFTDKDKDNVAPRSKISPQGY-NH2 [AM(22–52)NH2] |  | 4.79 µM | 5.37 µM and 12.9 µM
